Measured values taken from patent publication US20170291948A1 (published 2017).
Substitutions are numbered along the chain they refer to.

Biological target: human NRP1 protein (human, UniProt O14786 22-644)
Assay: ELISA

Chain of human NRP1 protein (O14786 other isoform, or with tags, fused parts or gaps): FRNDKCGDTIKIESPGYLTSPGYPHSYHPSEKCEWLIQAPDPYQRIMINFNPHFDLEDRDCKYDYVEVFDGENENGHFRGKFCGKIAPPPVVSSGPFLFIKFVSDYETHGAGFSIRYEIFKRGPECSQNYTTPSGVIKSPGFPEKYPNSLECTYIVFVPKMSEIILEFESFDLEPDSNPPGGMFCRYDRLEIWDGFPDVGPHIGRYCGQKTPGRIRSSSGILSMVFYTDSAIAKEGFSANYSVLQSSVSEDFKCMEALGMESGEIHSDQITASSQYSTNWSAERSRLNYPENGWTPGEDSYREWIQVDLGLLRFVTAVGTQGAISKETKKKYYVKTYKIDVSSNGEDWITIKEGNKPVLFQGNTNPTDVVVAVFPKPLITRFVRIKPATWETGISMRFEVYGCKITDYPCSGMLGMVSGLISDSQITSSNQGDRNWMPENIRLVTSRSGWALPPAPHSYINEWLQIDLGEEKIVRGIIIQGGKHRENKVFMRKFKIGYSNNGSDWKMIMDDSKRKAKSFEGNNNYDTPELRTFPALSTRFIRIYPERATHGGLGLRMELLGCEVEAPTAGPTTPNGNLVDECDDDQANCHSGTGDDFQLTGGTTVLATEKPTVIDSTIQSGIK

B1: 1A03 anti-NRP1 IgG (antibody, V domains shown)
VH: EVQLLESGGGLVQPGGSLRLSCAASGFTFSSYYMSWVRQAPGKGLEWVSAISPGSSNKYYADSVQGRFTISRDNSKNTLYLQMNSLRAEDTAVYYCARRKKSFDYWGQGTLVTVSS
VL: QSVLTQPPSASGTPGQRVTISCSGPSSNIGNNDVSWYQQLPGTAPKLLIYSDNNRPSGVPDRFSGSKSGTSASLAISGLRSEDEADYYCGAWVASLSAYVFGGGTKLTVL
- Kd: 1110 nM

B2: IRCR-101 (3H10) anti-NRP1 IgG (antibody, V domains shown)
VH: B1 VH with Q65K, K101Y, S102M
VL: B1 VL with S23T, P25S, S35Y, N53S, G90A, A91S, V93D, A94S, A98G
- Kd: 426 nM
